Results from patent US20250262210A1 (TRUSTEES OF COLUMBIA UNIVERSITY IN THE CITY OF NEW YORK, published 2025).

Key:
Experiment in all cases: IP/MS, LZTR1 wild type-FLAG, U87
CDK5RAP2 = CDK5RAP2 (human, UniProt Q96SN8 1-1893, limits assumed)
Summary of the method: (§1)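 Extracted peptides in 3% acetonitrile/0.1% formic acid ran on a 50 cm C18 column into an Orbitrap Fusion, with MaxQuant identification and spectral counting.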

MAP4K4 = MAP4K4 (human, UniProt O95819 2-1239, limits assumed)
Summary of the method: as §1

DPP9 = DPP9 (human, UniProt Q86TI2 2-863, limits assumed)
Summary of the method: as §1

PARP10 = molecular target: T1, PARP10 (human, UniProt Q53GL7 1-1025)
T1 sequence (looked up): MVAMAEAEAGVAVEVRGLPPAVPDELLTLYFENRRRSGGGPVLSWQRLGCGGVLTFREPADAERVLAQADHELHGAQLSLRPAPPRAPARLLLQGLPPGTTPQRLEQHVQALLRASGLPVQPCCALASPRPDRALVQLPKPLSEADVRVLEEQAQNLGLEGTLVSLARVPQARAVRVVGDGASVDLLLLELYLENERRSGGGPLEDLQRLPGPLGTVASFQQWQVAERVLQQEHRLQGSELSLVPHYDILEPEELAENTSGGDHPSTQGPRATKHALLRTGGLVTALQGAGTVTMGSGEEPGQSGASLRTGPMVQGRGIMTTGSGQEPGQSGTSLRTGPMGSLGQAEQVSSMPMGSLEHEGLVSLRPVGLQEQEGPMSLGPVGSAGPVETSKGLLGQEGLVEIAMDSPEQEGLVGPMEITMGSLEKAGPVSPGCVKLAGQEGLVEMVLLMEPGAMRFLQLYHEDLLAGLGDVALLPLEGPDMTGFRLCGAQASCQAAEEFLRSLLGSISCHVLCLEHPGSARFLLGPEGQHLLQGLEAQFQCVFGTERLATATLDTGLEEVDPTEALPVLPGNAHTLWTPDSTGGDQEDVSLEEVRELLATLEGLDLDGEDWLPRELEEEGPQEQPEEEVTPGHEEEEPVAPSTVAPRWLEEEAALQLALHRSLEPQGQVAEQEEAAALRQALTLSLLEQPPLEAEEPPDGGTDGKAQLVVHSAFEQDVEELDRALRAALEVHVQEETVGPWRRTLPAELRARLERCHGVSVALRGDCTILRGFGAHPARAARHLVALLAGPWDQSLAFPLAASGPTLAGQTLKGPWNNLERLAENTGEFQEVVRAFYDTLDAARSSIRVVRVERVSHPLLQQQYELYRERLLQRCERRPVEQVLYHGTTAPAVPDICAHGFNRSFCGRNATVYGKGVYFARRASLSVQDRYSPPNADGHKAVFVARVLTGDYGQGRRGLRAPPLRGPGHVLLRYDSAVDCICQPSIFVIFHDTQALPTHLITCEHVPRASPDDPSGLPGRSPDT
Summary of the method: as §1

MED24 = molecular target: T2, MED24 (human, UniProt O75448 1-989, limits assumed)
T2 sequence (looked up): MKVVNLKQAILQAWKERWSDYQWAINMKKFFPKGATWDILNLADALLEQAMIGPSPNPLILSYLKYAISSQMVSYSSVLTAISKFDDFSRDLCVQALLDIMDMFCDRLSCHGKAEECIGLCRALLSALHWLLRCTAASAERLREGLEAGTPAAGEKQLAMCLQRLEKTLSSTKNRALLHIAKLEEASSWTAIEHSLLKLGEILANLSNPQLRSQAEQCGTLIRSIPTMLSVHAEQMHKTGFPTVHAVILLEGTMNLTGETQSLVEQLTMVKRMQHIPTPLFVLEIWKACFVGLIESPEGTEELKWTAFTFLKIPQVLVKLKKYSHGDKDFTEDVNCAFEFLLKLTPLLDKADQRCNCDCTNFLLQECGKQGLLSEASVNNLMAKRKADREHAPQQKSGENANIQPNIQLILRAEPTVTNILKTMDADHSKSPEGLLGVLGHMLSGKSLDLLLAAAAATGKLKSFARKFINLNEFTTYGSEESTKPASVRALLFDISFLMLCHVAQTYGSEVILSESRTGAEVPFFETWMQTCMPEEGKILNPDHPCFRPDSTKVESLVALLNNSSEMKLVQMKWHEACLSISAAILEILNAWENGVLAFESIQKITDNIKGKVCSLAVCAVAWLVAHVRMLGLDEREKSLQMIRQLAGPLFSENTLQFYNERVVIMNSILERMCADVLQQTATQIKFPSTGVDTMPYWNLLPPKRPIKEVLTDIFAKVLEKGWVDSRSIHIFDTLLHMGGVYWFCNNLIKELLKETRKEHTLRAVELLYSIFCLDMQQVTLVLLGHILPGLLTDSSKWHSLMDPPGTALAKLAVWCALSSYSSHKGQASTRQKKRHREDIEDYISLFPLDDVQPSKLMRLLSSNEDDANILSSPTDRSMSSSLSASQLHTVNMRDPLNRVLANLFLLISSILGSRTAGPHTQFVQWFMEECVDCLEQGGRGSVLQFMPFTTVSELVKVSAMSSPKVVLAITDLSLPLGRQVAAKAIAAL
Summary of the method: as §1

KIF1B = KIF1B (human, UniProt O60333 2-1816, limits assumed)
Summary of the method: as §1

Measured: binding result

Sequence of CDK5RAP2 (Q96SN8 whole entry, the tested form may be a part): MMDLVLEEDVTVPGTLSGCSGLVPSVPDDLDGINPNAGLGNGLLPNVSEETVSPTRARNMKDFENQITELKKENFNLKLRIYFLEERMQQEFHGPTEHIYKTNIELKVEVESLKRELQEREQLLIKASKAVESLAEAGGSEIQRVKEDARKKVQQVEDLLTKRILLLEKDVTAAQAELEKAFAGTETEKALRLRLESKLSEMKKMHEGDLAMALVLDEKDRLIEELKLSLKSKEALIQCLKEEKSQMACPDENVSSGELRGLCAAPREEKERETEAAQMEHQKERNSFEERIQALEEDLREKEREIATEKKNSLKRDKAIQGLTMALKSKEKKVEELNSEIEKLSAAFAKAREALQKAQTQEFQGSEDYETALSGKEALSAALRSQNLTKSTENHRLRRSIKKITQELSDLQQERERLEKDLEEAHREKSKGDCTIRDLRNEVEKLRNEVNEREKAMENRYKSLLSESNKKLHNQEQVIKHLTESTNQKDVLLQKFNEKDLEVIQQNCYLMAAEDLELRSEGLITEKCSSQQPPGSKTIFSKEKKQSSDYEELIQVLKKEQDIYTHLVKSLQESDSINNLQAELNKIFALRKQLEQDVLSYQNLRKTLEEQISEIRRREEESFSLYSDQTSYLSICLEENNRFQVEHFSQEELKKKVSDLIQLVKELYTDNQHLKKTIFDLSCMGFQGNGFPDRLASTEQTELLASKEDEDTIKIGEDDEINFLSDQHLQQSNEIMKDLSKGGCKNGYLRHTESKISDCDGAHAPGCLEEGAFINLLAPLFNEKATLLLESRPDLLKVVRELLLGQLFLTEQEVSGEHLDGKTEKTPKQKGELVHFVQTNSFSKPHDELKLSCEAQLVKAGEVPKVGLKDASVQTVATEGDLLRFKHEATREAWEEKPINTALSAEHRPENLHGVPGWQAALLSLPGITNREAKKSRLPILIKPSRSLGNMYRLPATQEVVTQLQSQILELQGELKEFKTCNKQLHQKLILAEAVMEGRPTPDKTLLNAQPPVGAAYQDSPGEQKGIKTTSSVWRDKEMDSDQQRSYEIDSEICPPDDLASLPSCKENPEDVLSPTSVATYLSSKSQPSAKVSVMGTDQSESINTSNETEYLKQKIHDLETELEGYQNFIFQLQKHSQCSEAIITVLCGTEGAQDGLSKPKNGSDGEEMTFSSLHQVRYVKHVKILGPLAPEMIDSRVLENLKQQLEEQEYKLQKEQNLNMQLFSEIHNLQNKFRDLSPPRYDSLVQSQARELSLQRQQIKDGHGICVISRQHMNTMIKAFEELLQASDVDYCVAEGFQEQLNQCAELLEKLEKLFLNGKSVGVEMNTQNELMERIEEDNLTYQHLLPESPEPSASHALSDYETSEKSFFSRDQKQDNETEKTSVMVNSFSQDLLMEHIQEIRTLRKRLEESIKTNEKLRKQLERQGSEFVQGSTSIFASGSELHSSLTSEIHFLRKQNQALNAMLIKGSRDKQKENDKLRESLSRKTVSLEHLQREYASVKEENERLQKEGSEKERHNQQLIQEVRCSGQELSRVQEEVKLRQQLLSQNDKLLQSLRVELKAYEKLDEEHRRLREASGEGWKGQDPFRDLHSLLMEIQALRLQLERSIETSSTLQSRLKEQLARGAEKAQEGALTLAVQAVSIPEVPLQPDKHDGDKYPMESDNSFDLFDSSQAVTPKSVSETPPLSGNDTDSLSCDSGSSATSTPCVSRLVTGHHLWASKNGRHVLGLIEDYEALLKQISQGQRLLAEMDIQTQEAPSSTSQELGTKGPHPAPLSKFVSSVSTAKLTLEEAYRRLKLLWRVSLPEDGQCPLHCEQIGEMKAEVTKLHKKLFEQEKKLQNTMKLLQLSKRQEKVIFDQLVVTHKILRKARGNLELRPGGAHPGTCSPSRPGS
Sequence of MAP4K4 (O95819 2-1239 limits assumed): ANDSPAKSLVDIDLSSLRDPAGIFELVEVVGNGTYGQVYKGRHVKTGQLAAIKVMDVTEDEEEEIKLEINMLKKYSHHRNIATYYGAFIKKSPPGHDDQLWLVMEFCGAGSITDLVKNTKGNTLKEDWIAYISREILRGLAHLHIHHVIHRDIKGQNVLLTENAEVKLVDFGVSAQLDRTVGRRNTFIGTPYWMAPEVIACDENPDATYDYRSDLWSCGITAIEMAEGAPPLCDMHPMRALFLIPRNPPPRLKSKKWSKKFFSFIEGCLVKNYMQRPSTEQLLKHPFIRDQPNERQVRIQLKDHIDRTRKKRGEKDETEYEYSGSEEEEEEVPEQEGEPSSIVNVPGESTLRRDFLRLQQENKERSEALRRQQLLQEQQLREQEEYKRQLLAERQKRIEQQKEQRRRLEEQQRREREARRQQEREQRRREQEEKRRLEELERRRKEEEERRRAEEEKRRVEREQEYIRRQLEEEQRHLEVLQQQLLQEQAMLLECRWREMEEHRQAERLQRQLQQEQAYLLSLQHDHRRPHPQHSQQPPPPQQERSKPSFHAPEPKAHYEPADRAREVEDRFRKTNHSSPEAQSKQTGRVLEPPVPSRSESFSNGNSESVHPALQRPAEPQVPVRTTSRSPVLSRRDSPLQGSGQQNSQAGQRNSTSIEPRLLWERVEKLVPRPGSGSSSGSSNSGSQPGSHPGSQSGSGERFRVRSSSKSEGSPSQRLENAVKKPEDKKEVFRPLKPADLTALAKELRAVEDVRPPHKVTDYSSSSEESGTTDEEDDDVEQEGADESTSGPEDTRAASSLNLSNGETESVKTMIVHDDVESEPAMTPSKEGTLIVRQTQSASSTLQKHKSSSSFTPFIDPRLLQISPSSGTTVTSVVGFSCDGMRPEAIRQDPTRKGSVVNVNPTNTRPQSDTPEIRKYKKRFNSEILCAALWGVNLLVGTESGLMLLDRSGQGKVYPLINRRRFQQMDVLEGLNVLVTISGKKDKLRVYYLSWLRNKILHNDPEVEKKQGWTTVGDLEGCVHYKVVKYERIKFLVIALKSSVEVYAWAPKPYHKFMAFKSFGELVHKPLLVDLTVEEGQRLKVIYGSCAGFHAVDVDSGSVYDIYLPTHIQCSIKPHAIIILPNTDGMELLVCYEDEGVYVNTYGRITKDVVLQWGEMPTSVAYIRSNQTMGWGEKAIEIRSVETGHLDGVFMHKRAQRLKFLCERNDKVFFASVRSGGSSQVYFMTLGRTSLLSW
Sequence of DPP9 (Q86TI2 2-863 limits assumed): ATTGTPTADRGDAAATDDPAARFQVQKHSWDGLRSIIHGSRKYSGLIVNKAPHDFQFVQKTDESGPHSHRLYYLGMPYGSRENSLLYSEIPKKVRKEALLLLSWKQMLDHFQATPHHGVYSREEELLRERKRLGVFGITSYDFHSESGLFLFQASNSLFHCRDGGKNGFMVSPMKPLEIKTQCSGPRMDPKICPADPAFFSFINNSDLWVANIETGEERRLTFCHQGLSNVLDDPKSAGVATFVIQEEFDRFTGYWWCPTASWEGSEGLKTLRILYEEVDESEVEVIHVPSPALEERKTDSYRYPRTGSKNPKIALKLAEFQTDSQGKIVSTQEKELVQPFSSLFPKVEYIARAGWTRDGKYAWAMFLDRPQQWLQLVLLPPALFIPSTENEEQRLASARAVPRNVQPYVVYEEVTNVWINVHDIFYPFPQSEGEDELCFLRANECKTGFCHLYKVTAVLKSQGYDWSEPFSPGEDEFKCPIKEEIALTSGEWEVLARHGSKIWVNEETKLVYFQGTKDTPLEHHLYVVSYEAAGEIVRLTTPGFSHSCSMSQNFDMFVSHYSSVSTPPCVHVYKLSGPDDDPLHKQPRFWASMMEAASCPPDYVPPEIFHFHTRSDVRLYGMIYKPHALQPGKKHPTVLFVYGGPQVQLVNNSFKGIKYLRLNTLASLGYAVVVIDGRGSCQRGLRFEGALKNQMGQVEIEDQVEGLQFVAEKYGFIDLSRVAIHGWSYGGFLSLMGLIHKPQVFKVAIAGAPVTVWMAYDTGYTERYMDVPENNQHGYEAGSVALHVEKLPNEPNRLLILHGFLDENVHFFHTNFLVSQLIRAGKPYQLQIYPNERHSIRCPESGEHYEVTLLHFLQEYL

B1: LZTR1-FLAG (other, human, UniProt Q8N653 1-840, looked up)
chain: MAGPGSTGGQIGAAALAGGARSKVAPSVDFDHSCSDSVEYLTLNFGPFETVHRWRRLPPCDEFVGARRSKHTVVAYKDAIYVFGGDNGKTMLNDLLRFDVKDCSWCRAFTTGTPPAPRYHHSAVVYGSSMFVFGGYTGDIYSNSNLKNKNDLFEYKFATGQWTEWKIEGRLPVARSAHGATVYSDKLWIFAGYDGNARLNDMWTIGLQDRELTCWEEVAQSGEIPPSCCNFPVAVCRDKMFVFSGQSGAKITNNLFQFEFKDKTWTRIPTEHLLRGSPPPPQRRYGHTMVAFDRHLYVFGGAADNTLPNELHCYDVDFQTWEVVQPSSDSEVGGAEVPERACASEEVPTLTYEERVGFKKSRDVFGLDFGTTSAKQPTQPASELPSGRLFHAAAVISDAMYIFGGTVDNNIRSGEMYRFQFSCYPKCTLHEDYGRLWESRQFCDVEFVLGEKEECVQGHVAIVTARSRWLRRKITQARERLAQKLEQEAAPVPREAPGVAAGGARPPLLHVAIREAEARPFEVLMQFLYTDKIKYPRKGHVEDVLLIMDVYKLALSFQLCRLEQLCRQYIEASVDLQNVLVVCESAARLQLSQLKEHCLNFVVKESHFNQVIMMKEFERLSSPLIVEIVRRKQQPPPRTPLDQPVDIGTSLIQDMKAYLEGAGAEFCDITLLLDGHPRPAHKAILAARSSYFEAMFRSFMPEDGQVNISIGEMVPSRQAFESMLRYIYYGEVNMPPEDSLYLFAAPYYYGFYNNRLQAYCKQNLEMNVTVQNVLQILEAADKTQALDMKRHCLHIIVHQFTKVSKLPTLRSLSQQLLLDIIDSLASHISDKQCAELGADI
notes: Expressed in HEK 293T, HeLa or U87 cells; used as cell lysate; also called LZTR1 wild type-FLAG; LZTR1 WT; not shown: FLAG tag at the C-terminus
binds: all assays above
